Patent publication US20110293613A1 (Hoffmann-La Roche, published 2011)

Legend:
[1] = biological target: T1, human Insulin-like growth factor I receptor (IGF-1R) on tumor cells (human, UniProt P08069 31-1367); test: competitive FACS binding on A549 cells, competitor labeled <IGF-1R> HUMAB Clone 18, Exp. #1
T1 construct: Endogenously expressed on the human tumor cell lines; also called IGF-IR; CD 221 antigen

[2] = biological target: T1, human Insulin-like growth factor I …; test: competitive FACS binding on A549 cells, competitor labeled <IGF-1R> HUMAB Clone 18, Exp. #2
[3] = biological target: T1, human Insulin-like growth factor I …; test: competitive FACS binding on TC-71 cells, competitor labeled <IGF-1R> HUMAB Clone 18, Exp. #1
[4] = biological target: T1, human Insulin-like growth factor I …; test: competitive FACS binding on TC-71 cells, competitor labeled <IGF-1R> HUMAB Clone 18, Exp. #2

T1 sequence (P08069 31-1367 limits assumed): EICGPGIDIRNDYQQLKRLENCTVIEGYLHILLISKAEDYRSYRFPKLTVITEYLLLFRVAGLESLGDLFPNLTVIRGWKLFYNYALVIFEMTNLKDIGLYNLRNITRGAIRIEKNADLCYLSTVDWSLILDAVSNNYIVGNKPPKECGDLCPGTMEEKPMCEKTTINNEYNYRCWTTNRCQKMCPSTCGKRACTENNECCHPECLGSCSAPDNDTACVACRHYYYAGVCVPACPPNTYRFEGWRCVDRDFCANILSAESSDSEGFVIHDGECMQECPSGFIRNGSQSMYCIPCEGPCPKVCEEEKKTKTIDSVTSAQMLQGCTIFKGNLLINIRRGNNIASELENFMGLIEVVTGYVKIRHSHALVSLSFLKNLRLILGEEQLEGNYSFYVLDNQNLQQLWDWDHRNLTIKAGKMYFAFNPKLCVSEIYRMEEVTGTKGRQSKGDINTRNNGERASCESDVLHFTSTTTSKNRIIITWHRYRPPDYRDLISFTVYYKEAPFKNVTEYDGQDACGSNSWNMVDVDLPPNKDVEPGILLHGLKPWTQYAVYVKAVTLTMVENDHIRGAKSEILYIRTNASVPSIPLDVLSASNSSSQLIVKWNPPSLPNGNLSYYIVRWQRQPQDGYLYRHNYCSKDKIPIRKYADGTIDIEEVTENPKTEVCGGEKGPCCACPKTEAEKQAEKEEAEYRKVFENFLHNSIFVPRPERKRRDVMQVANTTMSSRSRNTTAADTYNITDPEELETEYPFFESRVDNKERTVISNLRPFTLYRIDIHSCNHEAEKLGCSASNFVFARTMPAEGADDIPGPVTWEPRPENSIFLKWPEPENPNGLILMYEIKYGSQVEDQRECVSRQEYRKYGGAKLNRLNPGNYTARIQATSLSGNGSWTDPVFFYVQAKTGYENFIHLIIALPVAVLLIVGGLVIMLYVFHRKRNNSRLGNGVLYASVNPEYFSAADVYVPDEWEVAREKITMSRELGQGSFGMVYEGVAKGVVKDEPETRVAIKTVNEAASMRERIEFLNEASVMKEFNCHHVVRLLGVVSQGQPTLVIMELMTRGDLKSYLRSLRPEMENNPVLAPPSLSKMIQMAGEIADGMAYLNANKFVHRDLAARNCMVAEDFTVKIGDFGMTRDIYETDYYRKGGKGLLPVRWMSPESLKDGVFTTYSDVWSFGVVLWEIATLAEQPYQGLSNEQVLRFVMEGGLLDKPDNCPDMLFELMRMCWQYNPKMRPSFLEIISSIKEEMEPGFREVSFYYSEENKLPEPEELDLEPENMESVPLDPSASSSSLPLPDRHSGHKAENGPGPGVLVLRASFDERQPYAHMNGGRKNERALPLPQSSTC

IC50 [1]: 1.6 nM
IC50 [2]: 1.5 nM
IC50 [3]: 1.4 nM
IC50 [4]: 1.5 nM
B1: human anti-IGF-1R antibody <IGF-1R> HUMAB Clone 18 (DSM ACC 2587) (antibody, V domains shown)
VH: QVELVESGGGVVQPGRSQRLSCAASGFTFSSYGMHWVRQAPGKGLEWVAIIWFDGSSTYYADSVRGRFTISRDNSKNTLYLQMNSLRAEDTAVYFCARELGRRYFDLWGRGTLVSVSS
VL: EIVLTQSPATLSLSPGERATLSCRASQSVSSYLAWYQQKPGQAPRLLIYDASKRATGIPARFSGSGSGTDFTLTISSLEPEDFAVYYCQQRSKWPPWTFGQGTKVESK
